Laboratory results as given in the supplement of paper PMC10126150.
± gives the standard deviation of the averaged measurements.

Test system: ATP
Assay: switch fluorescence ratio, 500 uM ATP over buffer (Cy3 cluster intensity, sum of 5 cycles each) (fold (ratio)); higher = stronger signal-on switching upon ATP binding; sequences stand for … in TCGTCGGCAGCGTCAGATGTGTATAAGAGACAGTTTTTTTTTTTTTTTTTTTTTTTTT…TC
Settings: aptamer strand: ATP DNA aptamer (quencher-CACCTGGGGGAGTATTGCGGAGGAAGG + anchor), 100 nM annealed; ATP concentration: 500 uM
Outline: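 Five buffer/ATP imaging cycles were run on Cy3-labelled switching-strand clusters on a modified Illumina MiSeq flow-cell, with NaOH stripping and re-annealing between cycles. In each cycle, clusters annealed to 100 nM quencher-labelled ATP aptamer were imaged in selection buffer, then after 15 min with 500 uM ATP at 22 °C. Per cluster, the fluorescence ratio is summed target-cycle over summed buffer-cycle Cy3 intensity, averaged per switch-domain sequence. Only clusters within 100-1000 RFU were kept.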
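Note: ATP exposure 15 min at 22 °C before imaging.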

Sequence | switch fluorescence ratio
CTAATATTAG | 1 ± 0.086
CTAATGGAAA | 0.998 ± 0.026
CTAATGGACA | 1.01 ± 0.025
CTAATTTAGT | 1.01 ± 0.014
CTAATTTTTC | 0.9878 ± 0.0026
CTACAAAAAA | 1.02 ± 0.034
CTACATCTTA | 1.02 ± 0.018
CTACGGGGCT | 1.01 ± 0.02
CTACGTTGGA | 1.03 ± 0.02
CTACTAATTA | 1.026 ± 0.0031
CTACTGCCGT | 1.02 ± 0.034
CTACTTTTTT | 1.01 ± 0.023
CTAGCACGGA | 0.9713 ± 0.0093
CTAGCATGGG | 0.999 ± 0.029
CTAGCTGACC | 1.11 ± 0.046
CTAGCTGCGA | 1.08 ± 0.055
CTAGCTGTAG | 1.04 ± 0.03
CTAGGAGGGC | 1 ± 0.027
CTAGGATCTA | 0.996 ± 0.062
CTAGGCCGGG | 0.98 ± 0.025
CTAGGCTAGG | 0.9885 ± 0.0012
CTAGGGAAAG | 0.989 ± 0.057
CTAGGGCATA | 1.05 ± 0.047
CTAGGGCGGA | 1.01 ± 0.021
CTAGGGGAGA | 1.018 ± 0.0038

Sequence | switch fluorescence ratio
CTAGGGGGGA | 0.997 ± 0.0052
CTAGGTAAAC | 1.06 ± 0.012
CTAGGTACTT | 1.03 ± 0.037
CTAGGTGATC | 1.07 ± 0.044
CTAGGTGCAA | 1.19 ± 0.091
CTAGGTTCTG | 1.015 ± 0.0043
CTAGTAAAGT | 0.977 ± 0.037
CTAGTATGGA | 1.02 ± 0.031
CTAGTTAAAC | 1.01 ± 0.02
CTAGTTGATG | 0.991 ± 0.022
CTAGTTGGAT | 0.9908 ± 0.0053
CTAGTTTGAG | 1.01 ± 0.01
CTATACGGCA | 1.09 ± 0.011
CTATACTTGG | 0.98716 ± 0.00098
CTATATTTTT | 1.01 ± 0.025
CTATCATAGT | 0.98 ± 0.032
CTATCATCAT | 0.9978 ± 0.0084
CTATCTATTG | 0.9923 ± 0.0014
CTATGAGTTT | 0.993 ± 0.013
CTATGGAGTG | 0.9928 ± 0.0039
CTATGTTGGT | 0.9562 ± 0.0062
CTATGTTTTG | 0.979 ± 0.017
CTATTACTTA | 1.02 ± 0.032
CTATTAGATG | 0.994 ± 0.03
CTATTAGGGT | 0.999 ± 0.052

Sequence | switch fluorescence ratio
CTATTGAATC | 1.022 ± 0.0015
CTATTGATGG | 0.996 ± 0.015
CTATTTAGTC | 0.9496 ± 0.0052
CTCAAATATG | 1.002 ± 0.0051
CTCACCCGGA | 1.18 ± 0.012
CTCACGACGT | 1.07 ± 0.019
CTCACTATGA | 0.99239 ± 0.0009
CTCAGAAACG | 1.03 ± 0.04
CTCAGATGAT | 0.988 ± 0.013
CTCAGGCTTG | 0.997 ± 0.052
CTCAGGTGTT | 1.73 ± 1
CTCATAGCGC | 1.02 ± 0.035
CTCATATTCA | 1.02 ± 0.027
CTCATTAAGG | 1.01 ± 0.016
CTCCAAGTGA | 1.315 ± 0.0062
CTCCAATAGT | 1.79 ± 0.044
CTCCGAATTT | 2.17 ± 0.35
CTCCGAGGGG | 1.31 ± 0.21
CTCCGGGCGA | 4.47 ± 1
CTCCGGGGTT | 1.85 ± 0.35
CTCCTAAATG | 1.19 ± 0.015
CTCCTAGTCA | 1.05 ± 0.061
CTCCTCGTGC | 3.49 ± 0.47
CTCCTGGACT | 1.069 ± 0.0061
CTCGAAGTTG | 0.9692 ± 0.0025

Sequence | switch fluorescence ratio
CTCGCCAGGG | 1.41 ± 0.032
CTCGGACGGG | 0.995 ± 0.046
CTCGGGATGG | 1.74 ± 0.98
CTCGGGCATT | 1.23 ± 0.052
CTCGGGGATG | 0.976 ± 0.013
CTCGGGGTTG | 1.022 ± 0.008
CTCGTAGCAG | 1.17 ± 0.013
CTCGTCCCCG | 0.994 ± 0.06
CTCGTGCCCG | 1.05 ± 0.075
CTCGTGGCGG | 1.02 ± 0.076
CTCGTTCTAT | 1.002 ± 0.0057
CTCGTTGAAG | 0.979 ± 0.032
CTCGTTGGGG | 0.979 ± 0.015
CTCGTTGTGG | 1.25 ± 0.37
CTCTAAGT | 1.01 ± 0.017
CTCTAGCTTT | 1.09 ± 0.075
CTCTATTGTG | 0.964 ± 0.027
CTCTCAAGGT | 1.05 ± 0.018
CTCTGAAATC | 2.997 ± 0.01
CTCTGAGGGC | 1.07 ± 0.057
CTCTGCGTCA | 1.32 ± 0.025
CTCTGTATGT | 1.035 ± 0.0081
CTCTGTGGAC | 2.11 ± 0.27
CTCTGTTACA | 1.04 ± 0.038
CTCTTGTGTT | 1.02 ± 0.048

Sequence | switch fluorescence ratio
CTCTTTCTAC | 2.05 ± 1.3
CTCTTTGGGG | 0.976 ± 0.013
CTGAAACAGC | 1.06 ± 0.043
CTGAAAGGGT | 1.01 ± 0.011
CTGAAGGATT | 1.01 ± 0.011
CTGAAGGGGG | 0.967 ± 0.058
CTGAAGTCTG | 1.019 ± 0.0084
CTGAATCCTA | 1.01 ± 0.017
CTGACACCCG | 1.07 ± 0.039
CTGACCGGTC | 1.017 ± 0.0087
CTGAGAATGG | 1.02 ± 0.011
CTGAGAGAAT | 1.27 ± 0.46
CTGAGATCTC | 1.02 ± 0.011
CTGAGGCTGA | 1.12 ± 0.11
CTGAGGGAAA | 0.988 ± 0.029
CTGAGGGAGC | 1.09 ± 0.061
CTGATAGTTG | 1.04 ± 0.0013
CTGATGGGGT | 1 ± 0.013
CTGATGTGGC | 1.06 ± 0.011
CTGATGTTTT | 0.9747 ± 0.0063
CTGATTACGC | 1.37 ± 0.016
CTGATTATGT | 1.02 ± 0.015
CTGATTTTAG | 1.02 ± 0.071
CTGCAAGGGA | 1.06 ± 0.051
CTGCAAGGGT | 1.214 ± 0.011

Sequence | switch fluorescence ratio
CTGCCAGGTT | 1.146 ± 0.0052
CTGCCCTCGC | 1.094 ± 0.0089
CTGCTAGACC | 1.21 ± 0.036
CTGCTCGTAA | 1.99 ± 0.18
CTGCTCTGGG | 1.02 ± 0.017
CTGCTGCAGG | 1.03 ± 0.044
CTGGAAATTT | 1 ± 0.027
CTGGAATCCG | 1.08 ± 0.015
CTGGAATTTT | 0.9949 ± 0.0028
CTGGACAGTA | 1.01 ± 0.027
CTGGACATGT | 0.97556 ± 7.2e-05
CTGGATGACA | 0.986 ± 0.092
CTGGCAGAAA | 1.02 ± 0.043
CTGGCCAGTT | 1 ± 0.013
CTGGCGAGGG | 1.01 ± 0.026
CTGGCGAGTA | 1.01 ± 0.016
CTGGCTGGTG | 1.1 ± 0.026
CTGGCTGTCT | 1.02 ± 0.036
CTGGCTTGAC | 0.983 ± 0.0052
CTGGGACAAA | 1.001 ± 0.0016
CTGGGATAGG | 1 ± 0.02
CTGGGATATA | 1 ± 0.04
CTGGGATTTG | 0.997 ± 0.049
CTGGGGGAGT | 1 ± 0.012
CTGGGGGATA | 1.02 ± 0.036

Sequence | switch fluorescence ratio
CTGGGGGGTA | 0.997 ± 0.028
CTGGGGTCGG | 1 ± 0.052
CTGGGGTGGA | 1.01 ± 0.036
CTGGGGTGTA | 1.03 ± 0.059
CTGGGTAAGT | 1.017 ± 0.0074
CTGGGTATGT | 0.959 ± 0.027
CTGGGTATTT | 0.999 ± 0.04
CTGGGTGCCG | 0.968 ± 0.084
CTGGGTTATT | 0.977 ± 0.042
CTGGGTTTAT | 1 ± 0.042
CTGGTAATAT | 1.15 ± 0.041
CTGGTACGAC | 1.13 ± 0.016
CTGGTACGGA | 1.0245 ± 0.00032
CTGGTCAATG | 1.01 ± 0.063
CTGGTCGCTG | 1.01 ± 0.046
CTGGTCGGGT | 1 ± 0.006
CTGGTCGTGC | 0.999 ± 0.013
CTGGTGGATT | 0.996 ± 0.024
CTGGTGGCCG | 1 ± 0.028
CTGGTTAACT | 1.024 ± 0.0048
CTGGTTAGGT | 1.01 ± 0.02
CTGGTTGCGG | 0.979 ± 0.021
CTGGTTTTGT | 1.04 ± 0.014
CTGTAAGGTG | 1.83 ± 1
CTGTAAGTCT | 0.989 ± 0.011

Sequence | switch fluorescence ratio
CTGTAGAAGA | 1.05 ± 0.032
CTGTAGACGG | 1.05 ± 0.014
CTGTATAGGT | 0.965 ± 0.025
CTGTATCAAG | 0.999 ± 0.013
CTGTATCTTT | 1.02 ± 0.036
CTGTCAGATT | 0.974 ± 0.025
CTGTCATGGG | 0.9952 ± 0.0063
CTGTCCAGTT | 1.02 ± 0.048
CTGTCGGGCG | 1.02 ± 0.035
CTGTCGGGGT | 0.982 ± 0.037
CTGTGAGTTT | 1.007 ± 0.0094
CTGTGCCAAG | 1.0036 ± 0.00061
CTGTGCTAGG | 1.01 ± 0.011
CTGTGGCCCG | 0.98 ± 0.027
CTGTGGGGGT | 1.04 ± 0.012
CTGTGGTTTA | 1.03 ± 0.021
CTGTGTGAAG | 1 ± 0.038
CTGTGTGTTT | 0.9781 ± 0.0072
CTGTTACTGT | 0.986 ± 0.024
CTGTTAGGCG | 0.9676 ± 0.0092
CTGTTCTAGT | 0.963 ± 0.045
CTGTTGAAAA | 1.07 ± 0.022
CTGTTGAATT | 1.01 ± 0.046
CTGTTGGTGG | 0.99 ± 0.017
CTGTTGTGGG | 0.989 ± 0.039
